Laboratory results published in patent US20120014950A1, “Antibodies That Specifically Bind to DR3” (Xencor, Inc., priority 2010, published 2012).

How the values were obtained:
DR3 receptor = target: T1, DR3 receptor (Homo sapiens, UniProt Q93038); assay: TF-1 assay (cell viability, cycloheximide, Cell Titer Glo); format: cell-based; details: TF-1 cells with cycloheximide; luminescence
T1 construct: endogenous in cells; host or cells: TF-1 (premyeloid)
T1 sequence (Q93038 25-417): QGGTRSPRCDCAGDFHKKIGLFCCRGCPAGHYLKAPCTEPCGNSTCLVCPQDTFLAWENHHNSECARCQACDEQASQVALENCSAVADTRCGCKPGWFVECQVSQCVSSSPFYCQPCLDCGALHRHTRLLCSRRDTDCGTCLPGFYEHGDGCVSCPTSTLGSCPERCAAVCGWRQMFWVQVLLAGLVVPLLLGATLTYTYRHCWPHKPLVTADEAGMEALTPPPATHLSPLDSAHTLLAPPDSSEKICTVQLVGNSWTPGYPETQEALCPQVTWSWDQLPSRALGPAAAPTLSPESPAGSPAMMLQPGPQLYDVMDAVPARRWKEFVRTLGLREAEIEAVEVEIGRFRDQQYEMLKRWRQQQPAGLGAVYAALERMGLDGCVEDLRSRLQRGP

[1] = tested on: collagen induced arthritis (CIA) mice; assay: Murine collagen induced arthritis (CIA) model; format: in vivo, DBA/1JLacJ mice; details: i.p., 200 μg (dexamethasone 50 μg)
Procedure: In general CIA was induced using the following protocol. Male DBA/1JLacJ mice (8-10 weeks) were injected intradermally (i.d.) at the base of the tail with […] of type II bovine collagen (CII) and complete Freund's adjuvant (CFA) at a final concentration of 4 mg/ml on Day 1. Mice were given a second injection i.d. with CII and CFA on Day 21. On days 21, 28, 35, and 42, mice were treated prophylactically with 200 μg intraperitoneal (i.p.) of the therapeutic molecules, anti-TNF-α antibody (R&D systems, cat #AB-410-NA) or D06-Fab-MSA. In addition, a control group of mice was not treated with a therapeutic molecule (“No Treatment”) and a second control group was treated with 50 μg dexamethasone i.p. every other day (e.o.d.) (“Dexamethasone”). The animals were scored every other day until the experiment was terminated on Day 46.
In a separate experiment, on days 21, 28, 35, and 42, CIA-mice were treated prophylactically with 200 μg intraperitoneal (i.p.) of either 2D9-Fab-MSA, or 5D10-Fab-MSA. In addition, a control group of mice was treated with an isotype control antibody (IgG1). The animals were scored every other day until the experiment was terminated on Day 46. Clinical scores were determined as above.
Histology was preformed to further determine the degree of inflammation as well as potential bone erosion in these animals. […]

Molecule | TF-1 cell viability / apoptosis induction (agonist, TL1A-like activity) (DR3 receptor) | % Arthritis Incidence at Day 42 [1] [%]
TL1A: human TL1A (TNFSF15), the natural ligand for DR3; positive control [reference compound] | induce apoptosis | –
C[C@@H]1C[C@H]2[C@@H]3CCC4=CC(=O)C=C[C@]4(C)[C@@]3(F)[C@@H](O)C[C@]2(C)[C@@]1(O)C(=O)CO [Dexamethasone] | – | 0
